Laboratory results taken from patent US20250381305A1, “METHOD FOR TREATING A PARKINSON'S DISEASE” (SINEUGENE THERAPEUTICS CO., LTD., priority 2022, published 2025).
Entries after “also recorded” stand apart in the source; their conditions may differ.

system: 293 FT; experiment: Cell viability after stress challenge, TRIM72 point mutants; type: cell-based; conditions: Flag-tagged point mutants vs wildtype; oxidative stress
Protocol: For TRIM72 stable expression cell line construction, DNA fragments of the series of Flag-tagged TRIM72 mutants or domain deletion or single domain were amplified from the corresponding TRIM72 expression vector by PCR and inserted into pLJM1-EGFP lentiviral vector between BsrGI and EcoRI sites to generate the series of Flag-tagged TRIM72 mutants or domain deletion or single domain fused with EGFP in lentiviral vector.
Cell viability was assessed using CCK-8. Cells were seeded in a 96-well plate at a density of 1.5×10^3cells per well for Arsenite treatment or 7×10^3 cells per well for H2O2 treatment. Arsenite (Sigma) was added into each well at concentration of 0.125 mM, 0.25 mM or 0.5 mM, and washed the cells after 2 hours incubation at 37° C. For H2O2-treatment experiment, scAAV9 infection (estimated multiplicity of infection (MOI): 10,000 vg/cell) was done for 24 hours at 17 hours after cell seeding. Then, H2O2 was added into each well at concentration of 300 μM, and washed the cells after 1 hours incubation at 37° C. […] After another 2 hours of incubation at 37° C., the optical density (OD) value of each well was measured using a microplate reader with an excitation wavelength of 450 nm. The cell viability of 293 FT was calculated. […]
Previous study determined that TRIM72 senses changes in the oxidative environment and forms oligomer complex to complete membrane repair. […]

Row | Molecule | cell viability after stress challenge (protective effect of TRIM72 mutants)
1 | C242A: Flag-tagged TRIM72 mutant, cysteine at position 242 substituted by alanine; blocks oligomer formation (protein, UniProt Q1XH17 1-477, looked up, variant C242A, Flag tag) Tripartite motif-containing …: MSAAPGLLRQELSCPLCLQLFDAPVTAECGHSFCRACLIRVAGEPAADGTVACPCCQAPTRPQALSTNLQLSRLVEGLAQVPQGHCEEHLDPLSIYCEQDRTLVCGVCASLGSHRGHRLLPAAEAQARLKTQLPQQKMQLQEACMRKEKTVAVLEHQLVEVEETVRQFRGAVGEQLGKMRMFLAALESSLDREAERVRGDAGVALRRELSSLNSYLEQLRQMEKVLEEVADKPQTEFLMKFALVTSRLQKILSESPPPARLDIQLPVISDDFKFQVWKKMFRALMPALEELTFDPSSAHPSLVVSSSGRRVECSDQKAPPAGEDTRQFDKAVAVVAQQLLSQGEHYWEVEVGDKPRWALGVMAADASRRGRLHAVPSQGLWLLGLRDGKILEAHVEAKEPRALRTPERPPARIGLYLSFADGVLAFYDASNPDVLTPIFSFHERLPGPVYPIFDVCWHDKGKNAQPLLLVGPEQEQA | abolished the anti-stress effect of TRIM72; also recorded: blocked TRIM72 protective effect
2 | C14A: Flag-tagged TRIM72 mutant, cysteine at position 14 substituted by alanine; E3 ligase inactive (protein, UniProt Q1XH17 1-477, looked up, variant C14A, Flag tag) Tripartite motif-containing …: MSAAPGLLRQELSAPLCLQLFDAPVTAECGHSFCRACLIRVAGEPAADGTVACPCCQAPTRPQALSTNLQLSRLVEGLAQVPQGHCEEHLDPLSIYCEQDRTLVCGVCASLGSHRGHRLLPAAEAQARLKTQLPQQKMQLQEACMRKEKTVAVLEHQLVEVEETVRQFRGAVGEQLGKMRMFLAALESSLDREAERVRGDAGVALRRELSSLNSYLEQLRQMEKVLEEVADKPQTEFLMKFCLVTSRLQKILSESPPPARLDIQLPVISDDFKFQVWKKMFRALMPALEELTFDPSSAHPSLVVSSSGRRVECSDQKAPPAGEDTRQFDKAVAVVAQQLLSQGEHYWEVEVGDKPRWALGVMAADASRRGRLHAVPSQGLWLLGLRDGKILEAHVEAKEPRALRTPERPPARIGLYLSFADGVLAFYDASNPDVLTPIFSFHERLPGPVYPIFDVCWHDKGKNAQPLLLVGPEQEQA | reserved equal protective effect to wildtype

system: N2a cell line; experiment: CCK-8 cell viability after H2O2 treatment, expression by scAAV9 infection; type: cell-based; conditions: scAAV9 infection MOI 10,000 vg/cell, H2O2 300 μM, 1 hour
Protocol: Cell viability was assessed using CCK-8. Cells were seeded in a 96-well plate at a density of 1.5×10^3cells per well for Arsenite treatment or 7×10^3 cells per well for H2O2 treatment. Arsenite (Sigma) was added into each well at concentration of 0.125 mM, 0.25 mM or 0.5 mM, and washed the cells after 2 hours incubation at 37° C. For H2O2-treatment experiment, scAAV9 infection (estimated multiplicity of infection (MOI): 10,000 vg/cell) was done for 24 hours at 17 hours after cell seeding. Then, H2O2 was added into each well at concentration of 300 μM, and washed the cells after 1 hours incubation at 37° C. When the cell has been processed by Arsenite or H202. a total of 10 μL of CCK-8 solution (Yeasen) was added to each well. After another 2 hours of incubation at 37° C., the optical density (OD) value of each well was measured using a microplate reader with an excitation wavelength of 450 nm. The cell viability of 293 FT was calculated. The experiment was repeated at least three times to obtain the mean value.
To further investigate which key domains of TRIM72 protein are necessary to protect neurons, different domain-deleted TRIM72 were constructed and overexpressed in N2a cell line by scAAV9 infection (FIG. 1). CCK-8 was used to measure the cell viability after H2O2 treatment. Indeed, cell viability was decreased after H2O2 treatment (FIG. 10).
CCK-8 was used to measure the cell viability after H2O2 treatment.

Row | Molecule | cell viability under H2O2 stress (protective effect)
3 | TRIM72: full-length TRIM72 protein with Ring finger, B-box, coiled-coil and PRYSPRY domains, overexpressed by lentivirus or scAAV9 (protein, listed as Homo sapiens) MSAAPGLLHQELSCPLCLQLFDAPVTAECGHSFCRACLGRVAGEPAADGTVLCPCCQAPTRPQALSTNLQLARLVEGLAQVPQGHCEEHLDPLSIYCEQDRALVCGVCASLGSHRGHRLLPAAEAHARLKTQLPQQKLQLQEACMRKEKSVAVLEHQLVEVEETVRQFRGAVGEQLGKMRVFLAALEGSLDREAERVRGEAGVALRRELGSLNSYLEQLRQMEKVLEEVADKPQTEFLMKYCLVTSRLQKILAESPPPARLDIQLPIISDDFKFQVWRKMFRALMPALEELTFDPSSAHPSLVVSSSGRRVECSEQKAPPAGEDPRQFDKAVAVVAHQQLSEGEHYWEVDVGDKPRWALGVIAAEAPRRGRLHAVPSQGLWLLGLREGKILEAHVEAKEPRALRSPERRPTRIGLYLSFGDGVLSFYDASDADALVPLFAFHERLPRPVYPFFDVCWHDKGKNAQPLLLVGPEGAEA | elicit protective effects from oxidative stress
4 | coiled-coil single domain: TRIM72 truncation with the coiled-coil domain only, 135aa-232aa (probably SEQ ID NO: 5) (protein, human TRIM72 coiled-coil domain (135-232 aa)) QQKLQLQEACMRKEKSVAVLEHQLVEVEETVRQFRGAVGEQLGKMRVFLAALEGSLDREAERVRGEAGVALRRELGSLNSYLEQLRQMEKVLEEVADK | not the coiled-coil single domain was sufficient to protect cells from oxidative stress
5 | TRIM40: other TRIM protein overexpressed in N2a cell line by scAAV9 infection, as comparison (protein, UniProt Q3UWA4 1-246, looked up, full-length, other TRIM protein overexpressed in N2a cell line by scAAV9 infection, as comparison) MGSLDKDNQDICPICLDPLKEAVSTDCRHLFCRMCLTQHMDKASVSGILSCPVCRKPCSEGVLGDNYICHTHQKRVRRFCEASGHLLCEECLQSPEHQSHTELSIENAISHYKERLNRRSRKLRKDLGNLQQLKAQEKKMLQALQVDCECHRLRTDLQNQDQTKEQLKALPWHWLDQEDLPEEVAKIFSFSEAVTQLSILVSGLERMAKDLDASTLKDASDLLDRSAPQKLEGLLSRVSPAGPKLS | rather than TRIM40 elicit protective effects from oxidative stress
6 | PRYSPRY single domain: TRIM72 truncation with the PRYSPRY domain only, 278aa-470aa (probably SEQ ID NO: 6) (protein, human TRIM72 PRYSPRY domain (278-470 aa)) RKMFRALMPALEELTFDPSSAHPSLVVSSSGRRVECSEQKAPPAGEDPRQFDKAVAVVAHQQLSEGEHYWEVDVGDKPRWALGVIAAEAPRRGRLHAVPSQGLWLLGLREGKILEAHVEAKEPRALRSPERRPTRIGLYLSFGDGVLSFYDASDADALVPLFAFHERLPRPVYPFFDVCWHDKGKNAQPLLLV | sufficient to protect cells from oxidative stress
7 | Coiled-PRYSPRY: TRIM72 truncation with coiled-coil and PRYSPRY domains, expressed by scAAV9 (probably SEQ ID NO: 11) (protein, expressed by scAAV9; TRIM72 coiled-coil domain plus PRYSPRY domain (135-470aa)) QQKLQLQEACMRKEKSVAVLEHQLVEVEETVRQFRGAVGEQLGKMRVFLAALEGSLDREAERVRGEAGVALRRELGSLNSYLEQLRQMEKVLEEVADKPQTEFLMKYCLVTSRLQKILAESPPPARLDIQLPIISDDFKFQVWRKMFRALMPALEELTFDPSSAHPSLVVSSSGRRVECSEQKAPPAGEDPRQFDKAVAVVAHQQLSEGEHYWEVDVGDKPRWALGVIAAEAPRRGRLHAVPSQGLWLLGLREGKILEAHVEAKEPRALRSPERRPTRIGLYLSFGDGVLSFYDASDADALVPLFAFHERLPRPVYPFFDVCWHDKGKNAQPLLLV | sufficient to protect cells from oxidative stress
